Protein stability index data for 94 variants are collected here from the supplement of paper PMC10567573.

The labels stand for the following.
B1: C10orf62 (parent)
chain: MLWVQRKRRRKETSECPSDKDKSP
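Further: lentivirally expressed fusions sorted by FACS into six bins by GFP to DsRed ratio, PSI derived from sequencing read proportions per bin multiplied by bin number.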

The series covers variants of B1. In words: protein stability index of a GFP-peptide fusion (GPS, HEK-293T) (PSI 1-6); higher = more stable. The conditions noted are these: c terminus: a fixed tail appended.
With MLWVQRMRRRKETSECPSDKDKSP [K7M], the protein stability index turned out to be 3.06.

As for MLWVQRWRRRKETSECPSDKDKSP [K7W], the protein stability index stood at 2.49.

Take MLWVQRDRRRKETSECPSDKDKSP [K7D]: the protein stability index was found to be 3.97.

As to MLWVQRQRRRKETSECPSDKDKSP [K7Q], the protein stability index was 3.74.

Take MLWVQRIRRRKETSECPSDKDKSP [K7I]: the protein stability index is 1.95.

As to MLWVQRKRRHKETSECPSDKDKSP [R10H], the protein stability index is 3.45.

In the case of MLWVQRKRRTKETSECPSDKDKSP [R10T], the protein stability index came out at 3.79.

Turning to MLWVQRKRRYKETSECPSDKDKSP [R10Y], the protein stability index amounted to 2.78.

On to MLWVQRKRRMKETSECPSDKDKSP [R10M], for which the protein stability index was determined as 3.13.

For MLWVQRKRRQKETSECPSDKDKSP [R10Q], the protein stability index came out at 3.12.

Turning to MLWVQRKRRSKETSECPSDKDKSP [R10S], the protein stability index was 3.21.

MLWVQRKRRRKETGECPSDKDKSP [S14G]: the protein stability index was found to be 3.1.

As for MLWVQRKRRRKETTECPSDKDKSP [S14T], the protein stability index was 2.55.

With MLWVQRKRRRKETHECPSDKDKSP [S14H], the protein stability index came out at 2.71.

MLWVQRKRRRKETWECPSDKDKSP [S14W]: the protein stability index turned out to be 2.94.

Take MLWVQRKRRRKETMECPSDKDKSP [S14M]: the protein stability index worked out at 3.31.

Regarding MLWVQRKRRRKETDECPSDKDKSP [S14D], the protein stability index amounted to 3.12.

Regarding MLWVQRKRRRKETSECPSDKPKSP [D21P], the protein stability index was determined as 2.62.

On to MLWVQRKRRRKETSECPSDKYKSP [D21Y], for which the protein stability index amounted to 2.32.

Take MLWVQRKRRRKETSECPSDKQKSP [D21Q]: the protein stability index was found to be 2.87.

For the variant MLWVQRKRRRKETSECPSDKMKSP [D21M], the protein stability index was found to be 2.5.

Regarding MLWVQRKRRRKETSECPSDKHKSP [D21H], the protein stability index was found to be 2.28.

For MLWVQRKRRRKETSECPSDKLKSP [D21L], the protein stability index came out at 2.29.

On to MLWVQRKRRRKETSECPSLKDKSP [D19L], for which the protein stability index was found to be 1.98.

Turning to MLWVQRKRRRKETSECPSFKDKSP [D19F], the protein stability index turned out to be 2.57.

Consider MLWVQRKRRRKETSECPSHKDKSP [D19H], for which the protein stability index is 2.77.

On to MLWVQRKRRRKETSECPSSKDKSP [D19S], for which the protein stability index came out at 2.37.

On to MLRVQRKRRRKETSECPSDKDKSP [W3R], for which the protein stability index is 4.46.

On to MLCVQRKRRRKETSECPSDKDKSP [W3C], for which the protein stability index came to 4.07.

Take MLYVQRKRRRKETSECPSDKDKSP [W3Y]: the protein stability index amounted to 2.77.

MLQVQRKRRRKETSECPSDKDKSP [W3Q]: the protein stability index was 3.13.

MLWVQRKRRRKETSECPSDKDKRP [S23R]: the protein stability index was 2.88.

In the case of MLWVQRKRRRKETSECPSDKDKGP [S23G], the protein stability index worked out at 3.25.

Turning to MLWVQRKRRRKETSECPSDKDKLP [S23L], the protein stability index turned out to be 3.38.

As for MLWVQRKRRRKETSECPSDKDKKP [S23K], the protein stability index was 2.27.

MLWVQRKRRRKETSECPSDKDKDP [S23D]: the protein stability index was 3.49.

For MLWVQRKRRRKETSECPSDKDKNP [S23N], the protein stability index is 3.29.

Consider MLWVQRKRRRKETSECPSDKDKCP [S23C], for which the protein stability index was determined as 3.15.

MLWVQRKRRRKETSECPSDKDKWP [S23W]: the protein stability index turned out to be 1.92.

As to MLWVQRKRRRKETSECPSDKDKIP [S23I], the protein stability index was found to be 2.4.

Turning to MLWVQRKRRRKETSECPSDKDKTP [S23T], the protein stability index was determined as 3.05.

Turning to MLWVQRKRRRKETSECPSDKDKYP [S23Y], the protein stability index came to 2.69.

Regarding MLWVQRKKRRKETSECPSDKDKSP [R8K], the protein stability index was determined as 3.15.

As to MLWVQRKGRRKETSECPSDKDKSP [R8G], the protein stability index was 4.16.

As for MLWVQRKARRKETSECPSDKDKSP [R8A], the protein stability index is 3.9.

As to MLWVQRKRRRKETSFCPSDKDKSP [E15F], the protein stability index is 3.

In the case of MLWVQRKRRRKETSPCPSDKDKSP [E15P], the protein stability index was determined as 2.99.

In the case of MLWVQRKRRRKETSQCPSDKDKSP [E15Q], the protein stability index came out at 3.56.

For the variant MLWVQRKRRRKETSTCPSDKDKSP [E15T], the protein stability index came to 2.95.

With MLWVQRKRRRKETSLCPSDKDKSP [E15L], the protein stability index was 2.84.

As for MLWVQRKRRRKETSSCPSDKDKSP [E15S], the protein stability index stood at 2.96.

Take MLWVQRKRRRKETSWCPSDKDKSP [E15W]: the protein stability index came out at 2.15.

For MAWVQRKRRRKETSECPSDKDKSP [L2A], the protein stability index came out at 3.92.

As to MMWVQRKRRRKETSECPSDKDKSP [L2M], the protein stability index worked out at 2.89.

On to MEWVQRKRRRKETSECPSDKDKSP [L2E], for which the protein stability index was determined as 4.

MVWVQRKRRRKETSECPSDKDKSP [L2V]: the protein stability index turned out to be 2.6.

On to MFWVQRKRRRKETSECPSDKDKSP [L2F], for which the protein stability index came to 1.33.

As for MNWVQRKRRRKETSECPSDKDKSP [L2N], the protein stability index turned out to be 3.93.

For MYWVQRKRRRKETSECPSDKDKSP [L2Y], the protein stability index is 2.41.

In the case of MHWVQRKRRRKETSECPSDKDKSP [L2H], the protein stability index was 3.52.

Regarding MKWVQRKRRRKETSECPSDKDKSP [L2K], the protein stability index was 2.98.

Regarding MWWVQRKRRRKETSECPSDKDKSP [L2W], the protein stability index stood at 2.53.

Consider CLWVQRKRRRKETSECPSDKDKSP [M1C], for which the protein stability index is 3.06.

On to NLWVQRKRRRKETSECPSDKDKSP [M1N], for which the protein stability index stood at 4.55.

In the case of ILWVQRKRRRKETSECPSDKDKSP [M1I], the protein stability index was 1.24.

RLWVQRKRRRKETSECPSDKDKSP [M1R]: the protein stability index came out at 2.59.

With HLWVQRKRRRKETSECPSDKDKSP [M1H], the protein stability index worked out at 3.73.

Take WLWVQRKRRRKETSECPSDKDKSP [M1W]: the protein stability index amounted to 2.83.

For the variant MLWVQRKRRRKETSECPSDKDYSP [K22Y], the protein stability index was 3.12.

For the variant MLWVQRKRRRKETSECPSDKDPSP [K22P], the protein stability index stood at 3.58.

Turning to MLWVQRKRRRKETSECPSDKDMSP [K22M], the protein stability index turned out to be 3.06.

With MLWVQRKRRRKETSECPSDKDFSP [K22F], the protein stability index was 2.66.

For the variant MLWVQRKRRRKETSECPSDKDSSP [K22S], the protein stability index worked out at 3.18.

As to MLWVQRKRRRKETSECPSDKDVSP [K22V], the protein stability index was found to be 3.63.

MLWVQRKRRRKETSECPSDKDTSP [K22T]: the protein stability index turned out to be 3.48.

Take MLWVQRKRRRKETSECPSDKDGSP [K22G]: the protein stability index was 2.97.

For the variant MLWVQRKRRRKETSECPSDKDASP [K22A], the protein stability index was found to be 4.4.

As to MLWVQRKRRRKETSEFPSDKDKSP [C16F], the protein stability index is 2.29.

As for MLWVQRKRRRKETSEKPSDKDKSP [C16K], the protein stability index came to 3.41.

With MLWVQRKRRRKETSEEPSDKDKSP [C16E], the protein stability index worked out at 3.25.

Take MLWVQRKRRRKETSESPSDKDKSP [C16S]: the protein stability index worked out at 4.01.

With MLWVQRKRRRKETSELPSDKDKSP [C16L], the protein stability index was 2.53.

Consider MLWVQRKRRRKETSEWPSDKDKSP [C16W], for which the protein stability index is 2.16.

On to MLWVQRKRRRKETSEVPSDKDKSP [C16V], for which the protein stability index stood at 2.81.

Consider MLWVQRKRRRKETSEMPSDKDKSP [C16M], for which the protein stability index is 3.84.

As for MLWVQRKRRRKETSECPSDKDKST [P24T], the protein stability index was found to be 2.98.

For MLWVQRKRRRKETSECPSDKDKSN [P24N], the protein stability index was 2.8.

For MLWVQRKRRRKETSECPSDKDKSR [P24R], the protein stability index was 3.31.

For MLWVQRKRRRKETSECPSDKDKSG [P24G], the protein stability index was 3.59.

Regarding MLWVQRKRRRKETSECPSDKDKSD [P24D], the protein stability index stood at 3.28.

MLWVQRKRRRKETSECPSDKDKSV [P24V]: the protein stability index came out at 2.95.

Regarding MLWVQRKRRRKETSECPSDKDKSC [P24C], the protein stability index amounted to 3.2.

Consider MLWVQRKRRRKETSECPSDKDKSA [P24A], for which the protein stability index is 3.72.

As to MLWVQRKRRRKETSECPSDKDKSW [P24W], the protein stability index was determined as 3.58.
